Results on 3 molecules are retold here after publication PMC4558008, “Yeast Mitochondrial Transcription Factor Mtf1 Determines the Precision of Promoter-Directed Initiation of RNA Polymerase Rpo41” (PLoS ONE, 2015).

To fix the notation:
B1: Yeast mitochondrial RNA polymerase Rpo41, wild-type (His-Rpo41) (enzyme)
chain: MLRPAYKSLVKTSLLQRRLISSKGSKLFKPSPDSTSTILISEDPLVTGSSPTSSTTSGIISSNDFPLFNKNRKDAKSSISYQWKNPSELEFDPFNKSHASAVTSMTRTRDVMQLWSLLEACLQSNLMKRAFSILESLYLVPEHKQRFIEDYNMYLNSFSKNDPNFPILKMNEKLTNDLETSFKDVNYNDKTLAIMIHHALNFHSTTSSMLLKPIISAYLKMSVNGIREIFSCLDILTISDLNILMNDLKVITPSQLPNSVRPILESLTLSPTPVNNIENEEGLNKVEAENDSKLHKASNASSDSIKKPSLDPLREVSFHGSTEVLSKDAEKLIAVDTIGMRVIRHTLLGLSLTPEQKEQISKFKFDANDNVLKMKPTKNDDNNNSINFFEIYNSLPTLEEKKAFESALNIFNQDRQKVLENRATEAARERWKHDFEEAKARGDISIEKNLNVKLWKWYNEMLPLVKEEINHCRSLLSEKLSDKKGLNKVDTNRLGYGPYLTLIDPGKMCVITILELLKLNSTGGVIEGMRTARAVISVGKAIEMEFRSEQVLKSESQAFRDVNKKSPEFKKLVQNAKSVFRSSQIEQSKILWPQSIRARIGSVLISMLIQVAKVSVQGVDPVTKAKVHGEAPAFAHGYQYHNGSKLGVLKIHKTLIRQLNGERLIASVQPQLLPMLVEPKPWVNWRSGGYHYTQSTLLRTKDSPEQVAYLKAASDNGDIDRVYDGLNVLGRTPWTVNRKVFDVVSQVWNKGEGFLDIPGAQDEMVLPPAPPKNSDPSILRAWKLQVKTIANKFSSDRSNRCDTNYKLEIARAFLGEKLYFPHNLDFRGRAYPLSPHFNHLGNDMSRGLLIFWHGKKLGPSGLKWLKIHLSNLFGFDKLPLKDRVAFTESHLQDIKDSAENPLTGDRWWTTADKPWQALATCFELNEVMKMDNPEEFISHQPVHQDGTCNGLQHYAALGGDVEGATQVNLVPSDKPQDVYAHVARLVQKRLEIAAEKGDENAKILKDKITRKVVKQTVMTNVYGVTYVGATFQIAKQLSPIFDDRKESLDFSKYLTKHVFSAIRELFHSAHLIQDWLGESAKRISKSIRLDVDEKSFKNGNKPDFMSSVIWTTPLGLPIVQPYREESKKQVETNLQTVFISDPFAVNPVNARRQKAGLPPNFIHSLDASHMLLSAAECGKQGLDFASVHDSYWTHASDIDTMNVVLREQFIKLHEVDLVLRLKEEFDQRYKNYVKIGKLKRSTDLAQKIIRIRKDLSRKLGRSTTLADEIYFEKKRQELLNSPLIEDRNVGEKMVTTVSLFEDITDLDALELENGGDENSGMSVLLPLRLPEIPPKGDFDVTVLRNSQYFFS
B2: Yeast mitochondrial transcription factor Mtf1 (His-Mtf1) (natural protein, UniProt P14908 2-341, looked up)
chain: SVPIPGIKDISKLKFFYGFKYLWNPTVYNKIFDKLDLTKTYKHPEELKVLDLYPGVGIQSAIFYNKYCPRQYSLLEKRSSLYKFLNAKFEGSPLQILKRDPYDWSTYSNLIDEERIFVPEVQSSDHINDKFLTVANVTGEGSEGLIMQWLSCIGNKNWLYRFGKVKMLLWMPSTTARKLLARPGMHSRSKCSVVREAFTDTKLIAISDANELKGFDSQCIEEWDPILFSAAEIWPTKGKPIALVEMDPIDFDFDVDNWDYVTRHLMILKRTPLNTVMDSLGHGGQQYFNSRITDKDLLKKCPIDLTNDEFIYLTKLFMEWPFKPDILMDFVDMYQTEHSG
notes: Mtf1, yeast mitochondrial transcription factor (theoretical 40 kDa); the printed PCR primers run from the codon after the start methionine (TCT GTT CCA ATC CCT: S V P I P) to the stop codon; Subcloned into pTrcHisC (Invitrogen) between NheI and HindIII; the vector's leader with the His tag precedes the protein; source: E. coli Rosetta cells, purified
B3: Rpo41 ΔN393 (N-terminal 393 residues removed, 958 aa) (domain or fragment, yeast, UniProt P13433 394-1351, looked up)
chain: SLPTLEEKKAFESALNIFNQDRQKVLENRATEAARERWKHDFEEAKARGDISIEKNLNVKLWKWYNEMLPLVKEEINHCRSLLSEKLSDKKGLNKVDTNRLGYGPYLTLIDPGKMCVITILELLKLNSTGGVIEGMRTARAVISVGKAIEMEFRSEQVLKSESQAFRDVNKKSPEFKKLVQNAKSVFRSSQIEQSKILWPQSIRARIGSVLISMLIQVAKVSVQGVDPVTKAKVHGEAPAFAHGYQYHNGSKLGVLKIHKTLIRQLNGERLIASVQPQLLPMLVEPKPWVNWRSGGYHYTQSTLLRTKDSPEQVAYLKAASDNGDIDRVYDGLNVLGRTPWTVNRKVFDVVSQVWNKGEGFLDIPGAQDEMVLPPAPPKNSDPSILRAWKLQVKTIANKFSSDRSNRCDTNYKLEIARAFLGEKLYFPHNLDFRGRAYPLSPHFNHLGNDMSRGLLIFWHGKKLGPSGLKWLKIHLSNLFGFDKLPLKDRVAFTESHLQDIKDSAENPLTGDRWWTTADKPWQALATCFELNEVMKMDNPEEFISHQPVHQDGTCNGLQHYAALGGDVEGATQVNLVPSDKPQDVYAHVARLVQKRLEIAAEKGDENAKILKDKITRKVVKQTVMTNVYGVTYVGATFQIAKQLSPIFDDRKESLDFSKYLTKHVFSAIRELFHSAHLIQDWLGESAKRISKSIRLDVDEKSFKNGNKPDFMSSVIWTTPLGLPIVQPYREESKKQVETNLQTVFISDPFAVNPVNARRQKAGLPPNFIHSLDASHMLLSAAECGKQGLDFASVHDSYWTHASDIDTMNVVLREQFIKLHEVDLVLRLKEEFDQRYKNYVKIGKLKRSTDLAQKIIRIRKDLSRKLGRSTTLADEIYFEKKRQELLNSPLIEDRNVGEKMVTTVSLFEDITDLDALELENGGDENSGMSVLLPLRLPEIPPKGDFDVTVLRNSQYFFS
notes: printed length 958 aa (theoretical 111 kDa); source: E. coli Rosetta cells, purified (same method as His-Rpo41: Ni-NTA, Superdex 200 gel filtration)

Assay [1] addresses B2. The experiment in a line: SEC; analytical gel filtration (Superdex), 2.8 μM Rpo41 (wild-type or ΔN393) with 5.6 μM Mtf1, no DNA; peak fractions on SDS-PAGE with densitometry; apparent Kd; 40 mM Tris-HCl pH 7.9, 150 mM NaCl, 0.1% Tween 20, 15% glycerol, 1 mM EDTA, 1 mM DTT. The following applies: both partners purified.
Assay [2] has as its target B2. The assay is described as above. The conditions noted are these: both partners purified. The source holds these as a separate data set.
Assay [3] concerns the target B2. The experiment in a line: SEC; analytical gel filtration (Superdex), 1 μM Rpo41 (wild-type or ΔN393), 2 μM Mtf1 and 3 μM 20 bp duplex DNA with the 14S rRNA promoter; peak fractions on SDS-PAGE with densitometry; apparent Kd in the presence of DNA; 40 mM Tris-HCl pH 7.9, 150 mM NaCl, 0.1% Tween 20, 15% glycerol, 1 mM EDTA, 1 mM DTT. The conditions noted are these: both partners purified.

Assay [4] deals with B3. The experiment in a line: SEC; analytical gel filtration (Superdex), 2.8 μM Rpo41 (wild-type or ΔN393) with 5.6 μM Mtf1, no DNA; peak fractions on SDS-PAGE with densitometry; apparent Kd; 40 mM Tris-HCl pH 7.9, 150 mM NaCl, 0.1% Tween 20, 15% glycerol, 1 mM EDTA, 1 mM DTT. The following applies: both partners purified. (Size exclusion chromatography separates by hydrodynamic size, large species first.)

Assay [5] addresses B3. Description: SEC; analytical gel filtration (Superdex), 1 μM Rpo41 (wild-type or ΔN393), 2 μM Mtf1 and 3 μM 20 bp duplex DNA with the 14S rRNA promoter; peak fractions on SDS-PAGE with densitometry; apparent Kd in the presence of DNA; 40 mM Tris-HCl pH 7.9, 150 mM NaCl, 0.1% Tween 20, 15% glycerol, 1 mM EDTA, 1 mM DTT. The following applies: both partners purified.
In assay [6] the target is B2. The description is as above. The conditions noted are these: both partners purified. The source holds these as a separate data set.
In assay [7] the target is B2. The experiment in a line: cell-based or functional assay.

What is called stoichiometry N is the number of molecules, sites or subunits per partner or assembly. Consider B1, for which the “stoichiometry N” value in assay [1] came out at 1. Besides, the Kd came out at 4000 nM in assay [2] and 20 nM in assay [3].
Take B2: the Kd was found to be 13000 nM in assay [4] and 600 nM in assay [5].
Turning to B3, the “stoichiometry N” value in assay [6] stood at 1. For the same molecule, in assay [7], the “activity of the holoenzyme on the 70 bp linear 14S rRNA promoter template, relative to the wild-type enzyme” value is 20%.
